This test addresses amyloid beta-protein 40 (Aβ40) (human) (UniProt P05067).

Here are results for one substance from patent publication US20230173039A1.

On to “plasminogen isolated and purified from plasma of a human donator (enzyme)”, for which the Aβ40 content by Tricine-SDS-PAGE with quantitative scanning (solvent control defined as 100%) turned out to be 74.8%.
